This data set in a line: label from the status in PepcDB records.
For “MSNFFKQTLASLLGTLLGLFLFAGAGTTGLLLLLFAAASSSNTGPVVKDKSVVVFDLSMNITDREPSAGEELQNRFSGVTQERMTLRNVIDSLEKAQRDKRIVAIYLDGSRGGNNLGFASLKEIRKALEEFRKSGKKVIAYGVAWDEKEYYLSSVADTIALNPLGGLEINGLSSQPMFLAGALQKYGIGVQVVRAGKFKGAVEPFLLDKLSPENREQTQKLLDDVWGEWRTTVGNSRKINPQKLQAIADNQSLLEATEAKTNGLVDQVAYNDQVVADLKKLTGSNKKDNTFTQISLRRYAQVPGQSLGLEKNSKNKIAVVYAEGDIVDGKGDDGQIGGDRFARIFNKIRQDENVKAVVLRINSPGGSATASEVMQREIRLTRESKPVVVSMGDYAASGGYWIATDSNRIFAEPNTITGSIGVFGVLFNGQKLANDNGITWDAVKTARYADSQTVARPKSPQEIAIYQRSVDRIYNMFVNKVAQGRKLPTQKVAEIAQGRVWSGVTAKQIGLVDEIGGLNAAIEYAAKAAKLGKDWQLREYPRESSFEERFFGGVVEEISTTLGIKKLDVKPNDPLTVQIQKIQQEISILQTMNDPQGVYARLPINLKIE”, the protein production result was “failed”.

Consider “MFVVAVANTKGGCGKTTLATHLAASFACRGYATGLADLDRQKSALGWLKRRPEGAAPIQGINLAREEDIPEGIERLVVDAAAAMDKDVVKDIVRRADLVVVPVLPGVFDEDGTARFVGHLESLKSIRKNRRDVAFVANRVRLNTRALTRLGGFLEELSFPVIARLRDTQHYTAAAAEGLSLFDLPGGRAADYRAEWTPLLDFIEIRVRGLEHHHHHH”, for which the protein production entry is “not failed”.

For the sequence “SRSRPAGPALLLLLLFLGAAESVRRAQPPRRYTPDWPSLDSRPLPAWFDEAKFGVFIHWGVFSVPAWGSEWFWWHWQGEGRPQYQRFMRDNYPPGFSYADFGPQFTARFFHPEEWADLFQAAGAKYVVLTTKHHEGFTNWPSPVSWNWNSKDVGPHRDLVGELGTALRKRNIRYGLYHSLLEWFHPLYLLDKKNGFKTQHFVSAKTMPELYDLVNSYKPDLIWSDGEWECPDTYWNSTNFLSWLYNDSPVKDEVVVNDRWGQNCSCHHGGYYNCEDKFKPQSLPDHKWEMCTSIDKFSWGYRRDMALSDVTEESEIISELVQTVSLGGNYLLNIGPTKDGLIVPIFQERLLAVGKWLSINGEAIYASKPWRVQWEKNTTSVWYTSKGSAVYAIFLHWPENGVLNLESPITTSTTKITMLGIQGDLKWSTDPDKGLFISLPQLPPSAVPAEFAWTIKLTGVK”, the protein production entry was “failed”.

For the sequence “MEAPKMALSDVKCRNARPASKLVKLSDGGGLQLWVQPTGSRLWRLAYRFGGKQKLLALGSYPLISLAEAREARDTAKRLLLRGIDPAQERKSQKASAEDTFRSIAEDYVDKLKKEGRADRTITKVKWLLDFAYPTFGDKSVREIDPATILAALRSVEVRGRYESARRMRSTIGSVFRYAIATARADVDPTIALRGALVGPTVTPRAAVTDPKALGGLLRAINAFDGQPTTRAALKLMALLFPRPGELRAAGWDEFDFESSVWSIPEGRMKMRRPHRVPLSTQAVSVLTSLREISGGGSLLFPSVRSGSRPISDNTLNAALRRMGYGKEEATAHGFRATASTLLNECGKWHPDAVERQLAHIENNDVRRAYARAEHWEERVRMMQWWADYLDELESKNSRVVSIGGREASLLSIHPREGLVWKPTATVRQTTSRTSNLRKSH”, the protein production result is given as “failed”.

Consider “EEWLDILGNGLLRKKTLVPGPPGSSRPVKGQVVTVHLQTSLENGTRVQEEPELVFTLGDCDVIQALDLSVPLMDVGETAMVTADSKYCYGPQGSRSPYIPPHAALCLEVTLKTAVDRPDLEM”, for which the protein production entry is “not failed”.

As to “MSSSSTSGLPATLPFEELAEAIKGRRSDYGHISGLQLDRFAPAEAWSSLPYRPVFVGDTETGVLHGGVVTAMLDESCGMAVQLALDGTRAIATLDLRIDYQKPATPGLDIKAHSVCYRTTRSIAFVRSTAYQESEDDPVATATACFMIGANRTNMLADRRMDSRSIPTLEAPEDPDGPFARSPFARCLGIRVNDDGTLTMPFSPKIIGNPILPAIHGGMTGAFLETTAIIGVARELGAAAPPKPIGLTINYLRSGRALDSFANVSIVKQGRRIVAFEARAWQDDADKPIATAFGHFMLRPTPGNDEE”, the protein production entry is listed as “failed”.

In the case of “MTEPNNPHRPDEAGVSGWPSEAGRDPYGQPSNPYQMPAPYSSGLPVAENHRRPYVDFGLAIKLFFKNYAVFRGRASRSEYWWTVLFNFIIAVAIQALMPILQGVGLMSAITSNSTTEFSAMSTSGVIFTMLPLAWLLAIIIPCLALTVRRLHDVNHSGWWVMAPTLCGIVSAIMMILAFVSAAANDGKPSMALLTIGIVLFVAIFVVNIILLIFVISDSHPEAWKKYDKEPLPVTE”, the protein production result is on record as “failed”.

The values are drawn from a protein production outcome set (Wang et al. 2014).
